The target in the assay is SARS-CoV-2 (Wuhan-Hu-1 strain) wild-type spike RBD with C-terminal 8xHis (SARS-CoV-2, UniProt P0DTC2 319-541). In words: BLI. (In BLI a coated tip is dipped into the sample, and binding shifts an interference pattern.)

Bounds are passed on as bounds.

B1: 7F3 (antibody, V domains shown)
VH: EVQLVESGGGLVKPGRSLRLSCTASGFTFGDYAMSWFRQAPGKGLEWVGFIRSKAYGGTTEYAASVKGRFTISRDDSKSIAYLQMNSLKTEDTAVYYCTRDRYARYDILTGLSPAGADYFYYAMDVWGQGTTVTVSS
VL: EIVLTQSPATLSLSPGERATLSCRASQSVSSYLAWYQQKPGQAPRLLIYDASNRATGIPARFSGSGSGTDFTLTISSLEPEDFAVYYCQQRSNWPQYTFGQGTKLEIK
As to B1, the equilibrium dissociation constant (Kd) (as a rule, the concentration at which binding is half-saturated) is less than 0.01 nM.

B2: LY-CoV1404 (antibody, V domains shown)
VH: QITLKESGPTLVKPTQTLTLTCTFSGFSLSISGVGVGWLRQPPGKALEWLALIYWDDDKRYSPSLKSRLTISKDTSKNQVVLKMTNIDPVDTATYYCAHHSISTIFDHWGQGTLVTVSS
VL: QSALTQPASVSGSPGQSITISCTATSSDVGDYNYVSWYQQHPGKAPKLMIFEVSDRPSGISNRFSGSKSGNTASLTISGLQAEDEADYYCSSYTTSSAVFGGGTKLTVL
B2 had a dissociation constant Kd of less than 0.01 nM.

Values taken from article PMC11180174 (2024).
